Source: EP1728802A2
pKd: −log10 of the molar value.

How the values were obtained:
[1] = biological target: ErbB3 expressed on 4E9H3 cells (K562 cells stably transfected with erbB3 cDNA) (UniProt P21860); assay: Scatchard analysis of competitive 125I-HRG binding to 4E9H3 cells, in the presence of 100 nM 3-8D6 Fab
[2] = biological target: ErbB3 expressed on 4E9H3 cells (K562 cells stably transfected with erbB3 cDNA) (UniProt P21860); assay: Scatchard analysis of competitive 125I-HRG binding to 4E9H3 cells, in the presence of 100 nM 3-8D6 IgG
[3] = biological target: ErbB3 expressed on 4E9H3 cells (K562 cells stably transfected with erbB3 cDNA) (UniProt P21860); assay: Scatchard analysis of competitive 125I-HRG binding to 4E9H3 cells, no antibody

Sequence of UniProt P21860 (P21860 20-1342 limits assumed): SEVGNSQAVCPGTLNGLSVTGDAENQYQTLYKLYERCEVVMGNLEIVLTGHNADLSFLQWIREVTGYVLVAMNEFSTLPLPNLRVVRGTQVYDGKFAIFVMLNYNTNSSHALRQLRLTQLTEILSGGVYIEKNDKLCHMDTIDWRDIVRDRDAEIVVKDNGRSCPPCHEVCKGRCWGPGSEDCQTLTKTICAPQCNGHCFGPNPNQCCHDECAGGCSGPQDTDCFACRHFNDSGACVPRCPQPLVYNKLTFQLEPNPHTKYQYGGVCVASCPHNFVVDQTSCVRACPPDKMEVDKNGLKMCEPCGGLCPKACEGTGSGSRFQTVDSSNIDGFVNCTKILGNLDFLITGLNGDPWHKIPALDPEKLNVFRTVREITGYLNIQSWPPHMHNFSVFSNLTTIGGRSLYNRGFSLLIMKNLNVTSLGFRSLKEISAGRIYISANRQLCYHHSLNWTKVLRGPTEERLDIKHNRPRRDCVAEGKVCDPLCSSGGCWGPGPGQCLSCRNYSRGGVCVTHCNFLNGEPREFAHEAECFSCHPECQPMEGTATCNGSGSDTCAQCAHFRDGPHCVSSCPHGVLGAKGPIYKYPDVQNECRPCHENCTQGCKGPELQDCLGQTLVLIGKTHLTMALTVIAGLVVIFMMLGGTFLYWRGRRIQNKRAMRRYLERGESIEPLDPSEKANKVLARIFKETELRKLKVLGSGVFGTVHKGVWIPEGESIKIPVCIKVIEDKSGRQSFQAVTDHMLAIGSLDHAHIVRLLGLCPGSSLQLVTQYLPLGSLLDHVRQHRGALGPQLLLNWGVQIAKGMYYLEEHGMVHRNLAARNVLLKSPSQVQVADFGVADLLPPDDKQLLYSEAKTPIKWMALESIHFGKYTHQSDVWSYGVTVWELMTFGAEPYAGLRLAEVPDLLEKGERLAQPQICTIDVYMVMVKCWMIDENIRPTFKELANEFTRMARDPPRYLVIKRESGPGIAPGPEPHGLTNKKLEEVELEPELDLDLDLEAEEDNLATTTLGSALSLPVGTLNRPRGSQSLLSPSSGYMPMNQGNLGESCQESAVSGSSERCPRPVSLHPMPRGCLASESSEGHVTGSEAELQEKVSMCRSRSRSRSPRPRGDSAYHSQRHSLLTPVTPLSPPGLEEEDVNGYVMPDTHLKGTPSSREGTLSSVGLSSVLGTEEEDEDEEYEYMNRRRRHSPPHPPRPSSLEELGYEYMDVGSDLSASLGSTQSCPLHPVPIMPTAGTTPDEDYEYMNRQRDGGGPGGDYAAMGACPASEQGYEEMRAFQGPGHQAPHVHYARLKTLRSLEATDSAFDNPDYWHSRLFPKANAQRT

“HRGβ1(177-244), EGF-like domain of the β1 isoform of heregulin (from UniProt Q02297 177-244) (ligand)” showed a pKd [1] of 9.55, a Sites/Cell [1] of 290000 sites/cell and a pKd [2] of 9.68. For the same substance, the Sites/Cell [2] was 240000 sites/cell, the pKd [3] was 8.92 and the Sites/Cell [3] was 360000 sites/cell.
